B1: LOXL2 (parent)
chain: HISSCKLGPQVSLDPMKNVTCENG

Variants of: B1
Assay: protein stability index of a GFP-peptide fusion (GPS, HEK-293T) (PSI 1-6); higher = more stable
Conditions: c terminus: a fixed tail appended
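Note: lentivirally expressed fusions sorted by FACS into six bins by GFP to DsRed ratio, PSI derived from sequencing read proportions per bin multiplied by bin number.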

Compared with HISSCKLGPQVSADPMKNVTCENG [L13A], HISSCKLGPQVSGDPMKNVTCENG [L13G] is higher in protein stability index: 4.43 for the first, 4.61 for the second.

Compared with HISSCKLGPQVSWDPMKNVTCENG [L13W], HISSCKLGPQVSNDPMKNVTCENG [L13N] is higher in protein stability index: 3.58 for the first, 4.42 for the second.

Going from HISSCKLGPQVSMDPMKNVTCENG [L13M] to HISSCKLGPQVSEDPMKNVTCENG [L13E], the protein stability index rises from 4.24 to 4.58.

Compared with HISSCKLGPQVSKDPMKNVTCENG [L13K], HISSCKLGPQVSHDPMKNVTCENG [L13H] is higher in protein stability index: 4.15 for the first, 4.34 for the second.

Going from HISSCKLGPQVSFDPMKNVTCENG [L13F] to HISSCKLGPQVSLDPMENVTCENG [K17E], the protein stability index rises from 3.52 to 4.28.

Compared with HISSCKLGPQVSLDPMNNVTCENG [K17N], HISSCKLGPQVSLDPMQNVTCENG [K17Q] is lower in protein stability index: 4.3 for the first, 3.81 for the second.

Compared with HISSCKLGPQVSLDPMSNVTCENG [K17S], HISSCKLGPQVSLDPMLNVTCENG [K17L] is lower in protein stability index: 4.02 for the first, 3.77 for the second.

First: HISSCKLGPQVSLDPMCNVTCENG [K17C]
Second: HISSCKLGPQVSLDPMINVTCENG [K17I]
The protein stability index of the first is higher: 3.63 for the first, 3.3 for the second.

First: HISSCELGPQVSLDPMKNVTCENG [K6E]
Second: HISSCQLGPQVSLDPMKNVTCENG [K6Q]
The protein stability index of the first is higher: 4.35 for the first, 4.04 for the second.

First: HISSCRLGPQVSLDPMKNVTCENG [K6R]
Second: HISSCNLGPQVSLDPMKNVTCENG [K6N]
The protein stability index of the first is lower: 3.94 for the first, 4.32 for the second.

First: HISSCHLGPQVSLDPMKNVTCENG [K6H]
Second: HISSCTLGPQVSLDPMKNVTCENG [K6T]
The protein stability index of the first is lower: 4 for the first, 4.36 for the second.

First: HISSCPLGPQVSLDPMKNVTCENG [K6P]
Second: HISSCLLGPQVSLDPMKNVTCENG [K6L]
The protein stability index of the first is higher: 4.48 for the first, 4.22 for the second.

First: HISSCWLGPQVSLDPMKNVTCENG [K6W]
Second: HISSCSLGPQVSLDPMKNVTCENG [K6S]
The protein stability index of the first is lower: 2.64 for the first, 4.34 for the second.

Going from HISSCKLGPQVSLDPMKNVHCENG [T20H] to HISSCKLGPQVSLDPMKNVNCENG [T20N], the protein stability index rises from 3.85 to 4.13.

First: HISSCKLGPQVSLDPMKNVDCENG [T20D]
Second: HISSCKLGPQVSLDPMKNVLCENG [T20L]
The protein stability index of the first is higher: 4.4 for the first, 4.37 for the second.

First: HISSCKLGPQVSLDPMKNVFCENG [T20F]
Second: HMSSCKLGPQVSLDPMKNVTCENG [I2M]
The protein stability index of the first is lower: 2.48 for the first, 4.41 for the second.

First: HCSSCKLGPQVSLDPMKNVTCENG [I2C]
Second: HSSSCKLGPQVSLDPMKNVTCENG [I2S]
The protein stability index of the first is lower: 3.44 for the first, 4.34 for the second.

First: HYSSCKLGPQVSLDPMKNVTCENG [I2Y]
Second: HGSSCKLGPQVSLDPMKNVTCENG [I2G]
The protein stability index of the first is lower: 3.61 for the first, 4.53 for the second.

Compared with HTSSCKLGPQVSLDPMKNVTCENG [I2T], HISYCKLGPQVSLDPMKNVTCENG [S4Y] is lower in protein stability index: 4.54 for the first, 3.44 for the second.

Compared with HISKCKLGPQVSLDPMKNVTCENG [S4K], HISFCKLGPQVSLDPMKNVTCENG [S4F] is lower in protein stability index: 3.96 for the first, 3.34 for the second.

Compared with HISECKLGPQVSLDPMKNVTCENG [S4E], HISPCKLGPQVSLDPMKNVTCENG [S4P] is lower in protein stability index: 4.37 for the first, 4.22 for the second.

First: HISDCKLGPQVSLDPMKNVTCENG [S4D]
Second: HISICKLGPQVSLDPMKNVTCENG [S4I]
The protein stability index of the first is higher: 3.61 for the first, 3.02 for the second.

First: HISLCKLGPQVSLDPMKNVTCENG [S4L]
Second: HISMCKLGPQVSLDPMKNVTCENG [S4M]
The protein stability index of the first is lower: 3.6 for the first, 3.94 for the second.

Going from HISSCKLGPCVSLDPMKNVTCENG [Q10C] to HISSCKLGPVVSLDPMKNVTCENG [Q10V], the protein stability index rises from 3.19 to 3.56.

Going from HISSCKLGPAVSLDPMKNVTCENG [Q10A] to HISSCKLGPSVSLDPMKNVTCENG [Q10S], the protein stability index rises from 4.29 to 4.33.

Compared with HISSCKLGPNVSLDPMKNVTCENG [Q10N], HISSCKLGPQVSLDPMKNVTCEKG [N23K] is higher in protein stability index: 3.92 for the first, 3.98 for the second.

Going from HISSCKLGPQVSLDPMKNVTCEFG [N23F] to HISSCKLGPQVSLDPMKNVTCETG [N23T], the protein stability index rises from 2.93 to 3.77.

First: HISSCKLGPQVSLDPMKNVTCEEG [N23E]
Second: HISSCKLGPQVSLDPMKNVTCEYG [N23Y]
The protein stability index of the first is higher: 4.63 for the first, 3.35 for the second.

Going from HISSCKLGVQVSLDPMKNVTCENG [P9V] to HISSCKLGIQVSLDPMKNVTCENG [P9I], the protein stability index falls from 3.23 to 2.63.

First: HISSCKLGMQVSLDPMKNVTCENG [P9M]
Second: HISSCKLGAQVSLDPMKNVTCENG [P9A]
The protein stability index of the first is lower: 2.69 for the first, 3.85 for the second.

First: HISSCKLGCQVSLDPMKNVTCENG [P9C]
Second: HISSCKLGSQVSLDPMKNVTCENG [P9S]
The protein stability index of the first is higher: 3.23 for the first, 3.05 for the second.

Compared with HISSCKLGRQVSLDPMKNVTCENG [P9R], HISSDKLGPQVSLDPMKNVTCENG [C5D] is higher in protein stability index: 3.76 for the first, 4.77 for the second.

Compared with HISSHKLGPQVSLDPMKNVTCENG [C5H], HISSRKLGPQVSLDPMKNVTCENG [C5R] is lower in protein stability index: 4.37 for the first, 4.1 for the second.

Going from HISSMKLGPQVSLDPMKNVTCENG [C5M] to HISSQKLGPQVSLDPMKNVTCENG [C5Q], the protein stability index rises from 4.2 to 4.49.

Going from HISSYKLGPQVSLDPMKNVTCENG [C5Y] to HISSVKLGPQVSLDPMKNVTCENG [C5V], the protein stability index rises from 4 to 4.31.

Going from HISSAKLGPQVSLDPMKNVTCENG [C5A] to HISSWKLGPQVSLDPMKNVTCENG [C5W], the protein stability index falls from 4.39 to 3.

First: HISSCKLGPQLSLDPMKNVTCENG [V11L]
Second: HISSCKLGPQESLDPMKNVTCENG [V11E]
The protein stability index of the first is lower: 3.72 for the first, 4.58 for the second.

First: HISSCKLGPQHSLDPMKNVTCENG [V11H]
Second: HISSCKLGPQASLDPMKNVTCENG [V11A]
The protein stability index of the first is higher: 4.41 for the first, 4.03 for the second.

Compared with HISSCKLGPQFSLDPMKNVTCENG [V11F], HISSCKLGPQKSLDPMKNVTCENG [V11K] is lower in protein stability index: 3.56 for the first, 3.48 for the second.

Going from HISSCKLGPQWSLDPMKNVTCENG [V11W] to HISSCKLGPQRSLDPMKNVTCENG [V11R], the protein stability index rises from 3.44 to 3.94.

First: HISSCKLGPQISLDPMKNVTCENG [V11I]
Second: HISSCKLGPQQSLDPMKNVTCENG [V11Q]
The protein stability index of the first is lower: 3.72 for the first, 4.4 for the second.

First: HISSCKLGPQVSLDPMKNVTKENG [C21K]
Second: HISSCKLGPQVSLDPMKNVTPENG [C21P]
The protein stability index of the first is lower: 4.06 for the first, 4.17 for the second.

Going from HISSCKLGPQVSLDPMKNVTAENG [C21A] to HISSCKLGPQVSLDPMKNVTVENG [C21V], the protein stability index falls from 4.41 to 4.1.

Compared with HISSCKLGPQVSLDPMKNVTRENG [C21R], HISSCKLGPQVSLDPMKNVTQENG [C21Q] is lower in protein stability index: 3.94 for the first, 3.86 for the second.

First: HISSCKLGPQVSLDPMKNVTWENG [C21W]
Second: HISSCKLGPQVSLDPMKCVTCENG [N18C]
The protein stability index of the first is higher: 3.75 for the first, 3.11 for the second.

Going from HISSCKLGPQVSLDPMKHVTCENG [N18H] to HISSCKLGPQVSLDPMKDVTCENG [N18D], the protein stability index rises from 3.81 to 4.34.

Compared with HISSCKLGPQVSLDPMKVVTCENG [N18V], HISSCKLGPQVSLDPMKAVTCENG [N18A] is lower in protein stability index: 3.78 for the first, 3.76 for the second.

— the supplement of paper PMC10567573
